According to patent US20220177552A1 (CELLTRION, published 2022):

Key:
Test in all cases: cell-based or functional assay
[1] = molecular target: S protein of Jordan isolate virus (MERS-HCoV/Jordan/01) (MERS-CoV, Jordan isolate …)
[2] = molecular target: S protein of Saudi isolate virus (MERS/HCoV/KSA/EMC/2012) (MERS-CoV, Saudi isolate …)
[3] = molecular target: S protein of Korean isolate virus (MERS-CoV/Korea/KNIH/002_05_2015) (MERS-CoV, Korean isolate …)

Binder | Neutralizing activity against Jordan virus (MERS-HCoV/Jordan/01) IC50 [1] [µg/mL] | Neutralizing activity against Saudi virus (MERS-CoV_KSA/EMC/2012) IC50 [2] [µg/mL] | IC50, PRNT, Korean isolate virus, Second experiment [3] [µg/mL] | IC50, PRNT, Korean isolate virus, First experiment [3] [µg/mL]
Antibody 5 (fully human antibody) (antibody, V domains shown) VH: EVQLVQSGAEVKKPGSSVKVSCKASGGTFSSYAISWVRQAPGQGLEWMGRIIPIFGIAKYAQKFQGRVTITADRSTSTAYMELSSLRSEDTAVYYCVTRSGDYSGSSGLAFDIWGQGTMVTVSS VL: not shown | 0.09 | 0.06 | 0.00025 | –
Antibody 1 (fully human antibody) (antibody, V domains shown) VH: QVQLVQSGAEVKKPGSSVKVSCKASGGTFSSYVISWVRQAPGQGLEWVGRIIPIFGTVKYAQKFQGRVTITADKSTSTAYMELSSLRSEDTAVYYCARDLPGDSRDGYNYDAFDIWGQGTLVTVSL VL: GELELTQPPSVSAAPGQKVTISCSGSSSNIGNNYVSWYQQLPGTAPKLLIYDNNKRPSGIPDRFSGSKSGTSATLGITGLQTGDEADYYCGTWDSSLNAGVFGGGTELTVLG | 0.11 | 0.44 | – | 0.0004
Antibody 2 (fully human antibody) (antibody, V domains shown) VH: EVQLVQSGAEVKKPGSSVKVSCKASGGTFSSYAISWVRQAPGQGLEWMGRIIPIFGIAKYAQKFQGRVTITADKSTSTAYMELSSLRSEDTAVYYCARDLPGDSRDGYNYDAFDIWGQGTMVTVSS VL: GELVLTQPPSVSAAPGQKVTISCSGSSSNIGNNFVSWYQQLPGTAPKLLIYDNDKRPSGIPDRFSGSKSGTSATLGITGLQTGDEADYYCATWDRSLSVELFGGGTKVTVLG | 0.06 | 0.09 | – | 0.0009
Antibody 3 (fully human antibody) (antibody, V domains shown) VH: QVQLQESGPGLVKPSETLSLTCTVSGGSINSRSYYWGWIRQPPGKGLEWIGSIYYSGSTYYNPSLKSRVTISVDTSKNQFSLKLRSVTAADTAVYYCARADREHVWGSYDGPGSPFDYWGQGTLVTVSS VL: not shown | 0.11 | 0.13 | 0.0032 | –
Antibody 4 (fully human antibody) (antibody, V domains shown) VH: QVQLQESGPGLVKPSETLSLTCTVSGGSINSRSYYWGWIRQPPGKGLEWIGSIYYSGSTYYNPSLKSRVTISVDTSKNQFSLKLRSVTAADTAVYYCARADREYVWGSYDGPGSPFDYWGQGTLVTVSS VL: GELVLTQPPSVSEAPRQRVTISCSGSSSNIGNNAVNWYLQVPGTAPKLLIYGDHQRPSGVPDRFSGSKSGTSASLSISGLQSEDEADYYCAAWDDSLNGVVFGGGTKLTVLG | 0.05 | 0.06 | 0.00165 | –
